# Laboratory results as given in patent US20090325887A1 (BOARD OF TRUSTEES OF THE UNIVERSITY OF ILLINOIS, published 2009).
# Experiments:
# [1] = molecular target: Cav3.1 channel (α3.1 subunit); test: cell-based or functional assay
# [2] = molecular target: Cav1.2 channel (α1.2 subunit, with β2a); test: cell-based or functional assay
inhibition of Cav3.1 current at 30 µM peptide [1],Binder,inhibition of Cav1.2 current at 30 µM peptide [2]
20.6%,FGFLVAIV [γ6 TM1a L41FL43F peptide],
5.5%,VGATLAVL [γ6 TM1b peptide],6.7%
15.8%,VGLTLAVL [γ6 TM1b A50L peptide],
26.3%,LGLLFAFV [γ6 TM1a V45FI47F peptide],

# Second part, the binder before the results:
Binder,inhibition of Cav3.1 current at 30 µM peptide [1],inhibition of Cav1.2 current at 30 µM peptide [2]
VGLFFALA [γ1 TM1a T12GI16A peptide],,27.5%
VTLFFILA [γ1 TM1a peptide],,15.5%
LTLLVAIV [γ6 TM1a G42T peptide],16.4%,
LTTAGAFA [γ4 TM1a peptide],-3.5%,-2.5%
LLILAVGV [γ6 TM1a SCR peptide],,3.2%
